Source: PMC6602965

Assays:
[1] = molecular target: AhlB (Aeromonas hydrophila strain AL09-71); test: crystal structure
[2] = molecular target: AhlC (Aeromonas hydrophila strain AL09-71); test: SEC; gel filtration of AhlC alone (Supplementary Fig. 2)
[3] = molecular target: AhlB (Aeromonas hydrophila strain AL09-71)
[4] = molecular target: AhlC (Aeromonas hydrophila strain AL09-71)
[5] = molecular target: AhlC (Aeromonas hydrophila strain AL09-71); test: cross-linking; 1.4 mg/ml soluble AhlC with glutaraldehyde (15 min, room temperature), then EDC in 0.1 M MES pH 6 (30 min); SDS-PAGE
[6] = molecular target: AhlC (Aeromonas hydrophila strain AL09-71); test: crystal structure; soluble AhlC, two crystal forms (P6(5)22, 2.35 A; P2(1), 2.6 A)

AhlB (natural protein) gave a stoichiometry N [1] of 10.
With AhlC (natural protein) the stoichiometry N [2] was 4, the haemolysis of horse erythrocytes by a 1:1 AhlB/AhlC mixture, 1 h, against lysis by osmotic shock with water [3] was 50% and the haemolysis with glutaraldehyde-cross-linked AhlC (mixture of monomeric and dimeric AhlC), reduction of lysis [4] was 50 % reduction. It also gave a stoichiometry N [5] of 2 and a stoichiometry N [6] of 4.
